Where a chain is given by its changes, count along the chain named. Ends that are not written are not given here.
T1: TPOR/4Rα hybrid receptor (fusion of the hTPOR extracellular domain and the intracellular 4Rα domain from … (human, UniProt P40238 26-491; P24394 257-825, limits assumed)
T1 sequence (looked up): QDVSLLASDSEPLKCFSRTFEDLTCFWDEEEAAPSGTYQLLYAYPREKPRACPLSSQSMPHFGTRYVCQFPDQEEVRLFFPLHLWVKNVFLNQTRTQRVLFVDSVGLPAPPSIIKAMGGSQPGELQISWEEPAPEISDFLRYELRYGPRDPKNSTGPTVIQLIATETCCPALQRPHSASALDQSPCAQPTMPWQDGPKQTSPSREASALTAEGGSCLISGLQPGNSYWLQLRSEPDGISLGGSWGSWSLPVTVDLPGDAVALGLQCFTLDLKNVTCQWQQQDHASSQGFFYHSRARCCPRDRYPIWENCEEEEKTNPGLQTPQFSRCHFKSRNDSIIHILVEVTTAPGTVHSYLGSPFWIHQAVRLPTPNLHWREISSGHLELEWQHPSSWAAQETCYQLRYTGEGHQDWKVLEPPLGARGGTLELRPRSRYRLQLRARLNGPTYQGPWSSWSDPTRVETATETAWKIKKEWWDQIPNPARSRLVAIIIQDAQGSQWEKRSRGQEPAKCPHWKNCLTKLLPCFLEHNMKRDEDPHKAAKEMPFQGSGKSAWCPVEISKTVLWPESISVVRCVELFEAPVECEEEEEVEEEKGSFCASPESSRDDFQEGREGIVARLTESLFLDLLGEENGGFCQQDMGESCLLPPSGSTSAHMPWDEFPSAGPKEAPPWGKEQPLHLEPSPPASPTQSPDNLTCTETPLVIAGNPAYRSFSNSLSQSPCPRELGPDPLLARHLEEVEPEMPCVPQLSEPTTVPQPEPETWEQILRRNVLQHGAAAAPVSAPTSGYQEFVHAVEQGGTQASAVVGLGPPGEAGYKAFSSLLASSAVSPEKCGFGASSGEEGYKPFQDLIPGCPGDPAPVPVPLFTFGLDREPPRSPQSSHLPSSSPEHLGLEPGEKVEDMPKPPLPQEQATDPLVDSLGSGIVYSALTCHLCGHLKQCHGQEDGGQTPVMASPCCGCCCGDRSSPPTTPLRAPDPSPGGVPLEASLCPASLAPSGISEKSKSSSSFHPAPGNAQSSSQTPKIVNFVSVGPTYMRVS

B1: dimeric SE-ET-TP-020 (DSS-crosslinked dimer) (designed binder)
chain: GCIEGPTLRQWLAARACKQDSDCLAGCVCGPNGFCGS
modifications: cysteine pairing not given here; also: DSS-crosslinked dimer, crosslink site not given here
B2: dimeric SE-AG-TP-040 (DSS-crosslinked dimer) (designed binder)
chain: GCVRLHESCLGQQVPCCDPAATCGGTALAIEGPTLRQWLAARACKGS
modifications: cysteine pairing not given here; also: dimer crosslinked by DSS, site of crosslink not given here
B3: dimeric SE-AG-TP-050 (DSS-crosslinked dimer) (designed binder)
chain: B2 chain with A27C, A40C
modifications: cysteine pairing not given here; also: dimer crosslinked by DSS, site of crosslink not given here
B4: dimeric SE-ET-TP-030 (DSS-crosslinked dimer) (designed binder)
chain: GCIEGPTLRQWLAACKQDSDCLAGCVCGPNGFCGS
modifications: cysteine pairing not given here; also: DSS-crosslinked dimer, crosslink site not given here

Target: T1, TPOR/4Rα hybrid receptor (fusion of the …)
Assay: cell-based or functional assay

Binder	Agonist EC50[nM] (Ba/F3 luciferase reporter assay)
B1	1.4
B2	~2
B3	2.5
B4	2.5

Source: patent US20090156476A1 (NASCACELL TECHNOLOGIES, published 2009)
